Assay results: patent US20050164936

Experiments:
MCP-2, P80075 = molecular target: T1, MCP-2, P80075
T1 chain: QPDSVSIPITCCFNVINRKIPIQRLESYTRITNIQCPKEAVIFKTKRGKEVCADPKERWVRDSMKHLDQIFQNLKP

RANTES(1-68) = molecular target: T2, RANTES(1-68)
T2 chain: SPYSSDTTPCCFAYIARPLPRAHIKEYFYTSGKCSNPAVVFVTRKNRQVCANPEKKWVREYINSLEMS

[1] = molecular target: monocyte chemotactic protein-3 (MCP-3), P80098
Chain of monocyte chemotactic protein-3 (MCP-3), P80098 (P80098 24-99): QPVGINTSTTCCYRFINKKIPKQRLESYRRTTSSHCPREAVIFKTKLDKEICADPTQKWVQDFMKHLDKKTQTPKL

Chain of MCP-1, P13500 (P13500 whole entry, looked up): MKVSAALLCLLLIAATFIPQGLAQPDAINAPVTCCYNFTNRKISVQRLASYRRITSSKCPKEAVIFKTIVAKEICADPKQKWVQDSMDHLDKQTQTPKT

B1: Human CD26/DPP IV (protein)
chain: MKTPWKVLLGLLGAAALVTIITVPVVLLNKGTDDATADSRKTYTLTDYLKNTYRLKLYSLRWISDHEYLYKQENNILVFNAEYGNSSVFLENSTFDEFGHSINDYSISPDGQFILLEYNYVKQWRHSYTASYDIYDLNKRQLITEERIPNNTQWVTWSPVGHKLAYVWNNDIYVKIEPNLPSYRITWTGKEDIIYNGITDWVYEEEVFSAYSALWWSPNGTFLAYAQFNDTEVPLIEYSFYSDESLQYPKTVRVPYPKAGAVNPTVKFFVVNTDSLSSVTNATSIQITAPASMLIGDHYLCDVTWATQERISLQWLRRIQNYSVMDICDYDESSGRWNCLVARQHIEMSTTGWVGRFRPSEPHFTLDGNSFYKIISNEEGYRHICYFQIDKKDCTFITKGTWEVIGIEALTSDYLYYISNEYKGMPGGRNLYKIQLSDYTKVTCLSCELNPERCQYYSVSFSKEAKYYQLRCSGPGLPLYTLHSSVNDKGLRVLEDNSALDKMLQNVQMPSKKLDFIILNETKFWYQMILPPHFDKSKKYPLLLDVYAGPCSQKADTVFRLNWATYLASTENIIVASFDGRGSGYQGDKIMHAINRRLGTFEVEDQIEAARQFSKMGFVDNKRIAIWGWSYGGYVTSMVLGSGSGVFKCGIAVAPVSRWEYYDSVYTERYMGLPTPEDNLDHYRNSTVMSRAENFKQVEYLLIHGTADDNVHFQQSAQISKALVDVGVDFQAMWYTDEDHGIASSTAHQHIYTHMSHFIKQCFSLP
- proteolytic processing (overnight incubation, Edman degradation) (MCP-1, P13500): no NH2-terminal sequence could be detected, indicating that CD26/DPP IV does not alter the NH2-terminus of MCPs
- proteolytic processing (overnight incubation, Edman degradation) (MCP-2, P80075): no NH2-terminal sequence could be detected, indicating that CD26/DPP IV does not alter the NH2-terminus of MCPs
- proteolytic processing (overnight incubation, Edman degradation) (RANTES(1-68)): CD26/DPP IV treatment of RANTES resulted in the removal of the NH2-terminal dipeptides
- proteolytic processing (overnight incubation, Edman degradation) [1]: no NH2-terminal sequence could be detected, indicating that CD26/DPP IV does not alter the NH2-terminus of MCPs
